Results from patent US20230137139A1, “BIOSYNTHESIS OF CANNABINOIDS AND C[…]” (priority 2020, published 2023).

Experiments:
[1] = system: CBCVA, THCVA, and CBDVA production; assay: In vivo TS activity assay, Example 2 protein engineering of A. niger CBCAS, cultures fed divaric acid; assay type: cell-based, S. cerevisiae; conditions: for Mean CBCVA / Mean CBDVA / Mean THCVA: S. cerevisiae strains expressing A. niger CBCAS mutants; for Mean CBCVA / Mean CBDVA / Mean THCVA / % CBCVA / % CBDVA / % THCVA: fed divaric acid; for % CBCVA / % CBDVA / % THCVA: share of terminal cannabinoid product profile
Procedure: (§1) An assay to detect TS activity was conducted as follows: each thawed glycerol stock of candidate CBCAS transformants was stamped into a well of YEP+4% dextrose media. Samples were incubated at 30° C. in a shaking incubator for 2 days. A portion of each of the resulting cultures was stamped into a well of YEP+4% galactose+1 mM olivetolic acid (FIG. 1 Structure 6a). Samples were incubated at 20° C. and shaken in a shaking incubator for 4 days. Every 24 hours during those 4 days, 2% galactose and 1 mM olivetolic acid were spiked into the cultures. Sodium citrate buffer adjusted to pH 5.5 was added to each well at a final concentration of 100 mM. Samples were incubated at 20° C. and shaken in a shaking incubator for 2 days. A portion of each of the resulting production cultures was stamped into a well of phosphate buffered saline (PBS). Optical measurements were taken on a plate reader, with absorbance measured at 600 nm and fluorescence at 528 nm with 485 nm excitation. Samples were incubated at 30° C. in a shaking incubator for 2 days. 100% methanol was stamped into the production cultures in half-height deepwell plates. Plates were heat sealed and frozen. Samples were then thawed for 30 min and spun down at 4° C. A portion of the supernatant was stamped into half-area 96 well plates. CBCA, THCA, and CBDA production in the samples was quantified via liquid chromatography-mass spectrometry (LC-MS).
(§2) To determine whether engineering of the A. niger CBCAS identified in Example 1 (corresponding to SEQ ID NO: 29 (with signal peptides); SEQ ID NO: 27 (without signal peptides and including an N-terminal methionine (UniProt accession No. A0A254UC34)); or SEQ ID NO: 25 (without signal peptides and without the N-terminal methionine)), could alter CBCAS substrate specificity, product specificity and/or amounts of products produced, point mutations were generated in A. niger CBCAS and the mutant versions of the protein were expressed in S. cerevisiae. A library containing 1047 A. niger CBCAS mutants was generated and screened. As in Example 1, each CBCAS mutant in the library, as well as the enzymes expressed by positive control strains, included an N-terminal MFalpha2 signal peptide (SEQ ID NO: 16) (with a methionine residue added at the N-terminus of the MFalpha2 signal peptide) and a C-terminal HDEL signal peptide (SEQ ID NO: 17).
(§3) Of the original 1047 library members, 55 strains were elevated to a secondary screen to verify CBCA production. The experimental protocol for the secondary screen was identical to the primary screen, except that additional biological replicates were included per strain, and replicate production cultures for each strain were separately fed 1 mM boluses of olivetolic acid or 1 mM boluses of divaric acid. All strains were screened in quadruplicate.

[2] = system: CBCA, THCA, and CBDA production; assay: In vivo TS activity assay, Example 2 protein engineering of A. niger CBCAS, cultures fed olivetolic acid; assay type: cell-based, S. cerevisiae; conditions: for average CBCA titer compared with the A. niger positive control / Mean CBCA / Mean CBDA / Mean THCA: secondary screen; for Mean CBCA / Mean CBDA / Mean THCA: olivetolic acid (Table 8); for % CBCA / % CBDA / % THCA: share of terminal cannabinoid product profile
Procedure: as §1, §2
Production of compounds of Formulae (9), (10), and/or (11), including compounds of Formulae (9a), (10a), and/or (11a) by strains expressing the mutated versions of A. niger CBCAS was quantified and compared to the production of the same compounds by a strain expressing wild-type A. niger CBCAS, a strain expressing a C. sativa THCAS, and a strain expressing a C. sativa CBDAS. The strains were screened using the same assay described in Example 1. Production of CBCA, THCA, and/or CBDA in the samples was quantified via LC-MS.
as §3

B1: t865690 (protein)
chain: MGNTTSIAGRDCLISALGGNSALAVFPNELLWTADVHEYNLNLPVTPAAITYPETAAQIAGVVKCASDYDYKVQARSGGHSFGNYGLGGADGAVVVDMKHFTQFSMDDETYEAVIGPGTTLADVDTELYNNGKRAMAHGVCPTIKTGGHFTIGGLGPTARQWGLALDHVEEVEVVLANSSIVRASNTQNQDVFFAVKGAAANFGIVTEFKVRTEPAPGLAVQYSYTFNLGSTAEKAQFVKDWQSFISAKNLTRQFYNNMVIFDGDIILEGLFFGSKEQYDALGLEDHFAPKNPGNILVLTDWLGMVGHALEDTILKLVGNTPTWFYAKSLGFRQDTLIPSAGIDEFFEYIANHTAGTPAWFVTLSLEGGAINDVAEDATAYAHRDVLFWVQLFMVNPVGPISDTTYEFTDGLYDVLARAVPESVGHAYLGCPDPRMEDAQQKYWRTNLPRLQELKEELDPKNTFHHPQGVMPA
- Mean CBCVA ([1]; secondary screen): 2557.72 µg/L
- Mean CBDVA ([1]; secondary screen): 0.00 µg/L
- Mean THCVA ([1]; secondary screen): 1441.19 µg/L
- % CBCVA [1]: 63.96%
- % CBDVA [1]: 0.00%
- % THCVA [1]: 36.04%
- average CBCA titer compared with the A. niger positive control [2]: higher
- Mean CBCA [2]: 38065.26 µg/L
- Mean CBDA [2]: 8288.48 µg/L
- Mean THCA [2]: 2186.36 µg/L
- % CBCA [2]: 78.42%
- % CBDA [2]: 17.08%
- % THCA [2]: 4.50%

B2: t865711 (protein)
chain: MGNTTSIAGRDCLISALGGNSALAVFPNELLWTADVHEYNLNLPVTPAAITYPETAAQIAGVVKCASDYDYKVQARSGGHSFGNYGLGGADGAVVVDMKHFTQFSMDDETYEAVIGPGTTLGDVDIELYNNGKRAMAHGVCPTIKTGGHFTIGGLGPTARQWGLALDHVEEVEVVLANSSIVRASNTQNQDVFFAVKGAAANFGIVTEFKVRTEPAPGLAVQYSYTFNLGSTAEKAQFVKDWQSFISAKNLTRQFYNNMVIFDGDIILEGLFFGSKEQYDALGLEDHFAPKNPGNILVLTDWLGMVGHALEDTILKLVGNTPTWFYAKSLGFRQDTLIPSAGIDEFFEYIANHTAGTPAWFVTLSLEGGAINDVAEDATAYAHRDVLFWVQLFMVNPFGPISDTTYEFTDGLYDVLARAVPESVGHAYLGCPDPRMEDAQQKYWRTNLPRLQELKEELDPKNTFHHPQGVMPA
- Mean CBCVA ([1]; secondary screen): 2442.93 µg/L
- Mean CBDVA ([1]; secondary screen): 0.00 µg/L
- Mean THCVA ([1]; secondary screen): 1315.45 µg/L
- % CBCVA [1]: 65.00%
- % CBDVA [1]: 0.00%
- % THCVA [1]: 35.00%
- average CBCA titer compared with the A. niger positive control [2]: higher
- Mean CBCA [2]: 33994.02 µg/L
- Mean CBDA [2]: 9666.71 µg/L
- Mean THCA [2]: 2096.22 µg/L
- % CBCA [2]: 74.29%
- % CBDA [2]: 21.13%
- % THCA [2]: 4.58%

B3: t865728 (protein)
chain: MGNTTSIAGRDCLISALGGNSALAVFPNELLWTADVHEYNLNLPVTPAAITYPETAAQIAGVVKCASDYDYKVQARSGGHSFGNYGLGGADGAVVVDMKHFTQFSMDDETYEAVIGPGTTLNDVDIELYNNGKRAMAHGVCPTIKTGGHFTIGGLGPTARQWGLALDHVEEVEVVLANSSIVRASNTQNQDVFFAVKGAAANFGIVTEFKVRTEPAPGLAVQYSYTFNLGSTAEKAQFVKDWQSFISAKNLTRQFYNNMVIFDGDIILEGLFFGSKEQYDALGLEDRFAPKNPGNILVLTDWLGMVGHALEDTILKLVGNTPTWFYAKSLGFRQDTLIPSSGIDEFFEYIANHTAGTPAWFVTLSLEGGAINDVAEDATAYAHRDVLFWVQLFMVNPVGPISDTTYEFTDGLYDVLARAVPESVGHAYLGCPDPRMEDAQQKYWRTNLPRLQELKEELDPKNTFHHPQGVMPA
- Mean CBCVA ([1]; secondary screen): 3907.72 µg/L
- Mean CBDVA ([1]; secondary screen): 0.00 µg/L
- Mean THCVA ([1]; secondary screen): 1759.32 µg/L
- average CBCVA titer compared with the A. niger positive control ([1]; secondary screen): higher
- % CBCVA [1]: 68.96%
- % CBDVA [1]: 0.00%
- % THCVA [1]: 31.04%
- average CBCA titer compared with the A. niger positive control [2]: higher
- Mean CBCA [2]: 36875.12 µg/L
- Mean CBDA [2]: 8996.37 µg/L
- Mean THCA [2]: 2692.19 µg/L
- % CBCA [2]: 75.93%
- % CBDA [2]: 18.52%
- % THCA [2]: 5.54%

B4: t865749 (protein)
chain: MGNTTSIAGRDCLISALGGNSALAVFPNELLWTADVHEYNLNLPVTPAAITYPETAAQIAGVVKCASDYDIKVQARSGGHSFGNYGLGGADGAVVVDMKHFTQFSMDDETYEAVIGPGTTLNDVDIELYNNGKRAMAHGVCPTIKTGGHFTIGGLGPTARQWGLALDHVEEVEVVLANSSIVRASNTQNQDVFFAVKGAAANFGIVTEFKVRTEPAPGLAVQYSYTFNLGSTAEKAQFVKDWQSFISAKNLTRQFYNNMVIFDGDIILEGLFFGSKEQYDALGLEDHFAPKNPGNILVLTDWLGMVGHALEDTILKLVGNTPTWFYAKSLGFRQDTLIPSAGIDEFFEYIANHTAGTPAWFVTLSLEGGAINDVAEDATAYAHRDVLFWVQLFMVNPVGPISDTTYEFTDGLYDVLARAVPESVGHAYLGCPDPRMEDAQQKYWRTNLPRLQELKEELDPKNTFHHPQGVMPA
modifications: expressed in S. cerevisiae strain
- Mean CBCVA ([1]; secondary screen): 2230.06 µg/L
- Mean CBDVA ([1]; secondary screen): 0.00 µg/L
- Mean THCVA ([1]; secondary screen): 997.07 µg/L
- % CBCVA [1]: 69.10%
- % CBDVA [1]: 0.00%
- % THCVA [1]: 30.90%
- average CBCA titer compared with the A. niger positive control [2]: higher
- Mean CBCA [2]: 37290.06 µg/L
- Mean CBDA [2]: 6071.00 µg/L
- Mean THCA [2]: 2140.74 µg/L
- % CBCA [2]: 81.95%
- % CBDA [2]: 13.34%
- % THCA [2]: 4.70%

B5: t865805 (protein)
chain: MGNTTSIAGRDCLISALGGNSALAVFPNELLWTADVHEYNLNLPVTPAAITYPESAAQIAGVVKCASDYDYKVQARSGGHSFGNYGLGGADGAVVVDMKHFTQFSMDDETYEAVIGPGTTLNDVDTELYNNGKRAMAHGVCPTIKTGGHFTIGGLGPTARQWGLALDHVEEVEVVLANSSIVRASNTQNQDVFFAVKGAAANFGIVTEFKVRTEPAPGLAVQYSYTFNLGSTAEKAQFVKDWQSFISAKNLTRQFYNNMVIFDGDIILEGLFFGSKEQYDALGLEDHFAPKNPGNILVLTDWLGMVGHALEDTILKLVGNTPTWFYAKSLGFRQDTLIPSAGIDEFFEYIANHTAGTPAWFVTLSLEGGAINDVAEDATAYAHRDVLFWVQLFMVNPVGPISDTTYEFTDGLYDVLARAVPESVGHAYLGCPDPRMEDAQQKYWRTNLPRLQELKEELDPKNTFHHPQGVMPA
modifications: expressed in S. cerevisiae strain
- Mean CBCVA ([1]; secondary screen): 3077.84 µg/L
- Mean CBDVA ([1]; secondary screen): 0.00 µg/L
- Mean THCVA ([1]; secondary screen): 1538.55 µg/L
- % CBCVA [1]: 66.67%
- % CBDVA [1]: 0.00%
- % THCVA [1]: 33.33%
- average CBCA titer compared with the A. niger positive control [2]: higher
- Mean CBCA [2]: 34567.68 µg/L
- Mean CBDA [2]: 8917.97 µg/L
- Mean THCA [2]: 2285.23 µg/L
- % CBCA [2]: 75.52%
- % CBDA [2]: 19.48%
- % THCA [2]: 4.99%
